# Experimental data as given in patent publication US20220031857A1 (OSSIANIX, published 2022).
# T1: recombinant mouse TfR2 (mouse, UniProt Q9JKX3 103-798, limits assumed)
# T1 construct: Negative control protein
# T1 sequence (looked up): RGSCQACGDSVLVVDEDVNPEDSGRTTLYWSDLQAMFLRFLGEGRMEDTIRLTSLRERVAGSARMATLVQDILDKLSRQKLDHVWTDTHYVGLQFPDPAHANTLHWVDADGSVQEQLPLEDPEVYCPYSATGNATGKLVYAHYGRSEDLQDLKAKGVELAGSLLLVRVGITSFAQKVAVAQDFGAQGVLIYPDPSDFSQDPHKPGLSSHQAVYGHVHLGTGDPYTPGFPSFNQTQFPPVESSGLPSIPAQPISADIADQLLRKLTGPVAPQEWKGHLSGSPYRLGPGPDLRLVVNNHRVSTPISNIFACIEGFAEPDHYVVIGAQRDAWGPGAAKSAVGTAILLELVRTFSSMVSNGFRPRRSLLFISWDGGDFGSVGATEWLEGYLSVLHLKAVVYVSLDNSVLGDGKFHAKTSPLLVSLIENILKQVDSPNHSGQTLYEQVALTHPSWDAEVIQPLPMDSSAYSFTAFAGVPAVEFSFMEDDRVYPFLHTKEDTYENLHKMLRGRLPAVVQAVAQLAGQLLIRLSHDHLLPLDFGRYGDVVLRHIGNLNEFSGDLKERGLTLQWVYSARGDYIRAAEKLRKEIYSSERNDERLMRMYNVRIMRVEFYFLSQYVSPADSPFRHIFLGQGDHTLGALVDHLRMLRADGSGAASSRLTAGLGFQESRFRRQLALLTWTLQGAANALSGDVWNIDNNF
# Key:
# [1] = molecular target: T2, recombinant mouse TfR1 (transferrin receptor 1) (mouse, UniProt Q62351 89-763); assay: ELISA on mouse TfR1
# T2 construct: Bought recombinant His-tagged protein; also called mTfR1
# T2 sequence (Q62351 89-763 limits assumed): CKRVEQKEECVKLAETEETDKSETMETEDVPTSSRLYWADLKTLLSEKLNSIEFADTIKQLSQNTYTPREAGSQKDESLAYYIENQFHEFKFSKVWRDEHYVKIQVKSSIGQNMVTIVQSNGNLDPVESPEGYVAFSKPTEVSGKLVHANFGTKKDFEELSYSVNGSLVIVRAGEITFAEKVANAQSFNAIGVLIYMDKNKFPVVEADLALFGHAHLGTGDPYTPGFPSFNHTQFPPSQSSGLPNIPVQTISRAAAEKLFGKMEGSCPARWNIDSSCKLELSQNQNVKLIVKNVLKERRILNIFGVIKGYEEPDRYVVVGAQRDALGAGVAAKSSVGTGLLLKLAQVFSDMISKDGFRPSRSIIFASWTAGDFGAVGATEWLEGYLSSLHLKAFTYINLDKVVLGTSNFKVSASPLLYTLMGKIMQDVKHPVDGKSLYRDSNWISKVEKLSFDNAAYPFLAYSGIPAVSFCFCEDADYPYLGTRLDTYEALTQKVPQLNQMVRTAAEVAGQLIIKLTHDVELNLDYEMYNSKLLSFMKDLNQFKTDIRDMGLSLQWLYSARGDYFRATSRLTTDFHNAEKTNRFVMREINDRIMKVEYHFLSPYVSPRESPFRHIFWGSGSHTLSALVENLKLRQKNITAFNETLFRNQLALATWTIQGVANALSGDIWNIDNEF
# recombinant mouse TfR2 = molecular target: T1, recombinant mouse TfR2; assay: ELISA with Expi293 culture medium used directly, coated mouse TfR2, anti-Fc detection
# Method: (§1) FIG. 6. […] The VNAR-Fc fusion proteins were transiently expressed using Expi293 expression system. VNAR-Fc constructs contained signal peptide sequence in order to be secreted. Cell growth media was used directly in ELISA. HSA and mouse TfR2 were used as negative controls for unspecific binding. A clone in position 52 represents untransfected cells. Total Fc concentration was measured with capture and detection anti-Fc antibody pair using irrelevant VNAR-Fc at known concentration for standard curve.
# (§2) The next day the plates were blocked with […] with 0.1% Tween20 (PBST) for 1 hour at room temperature. Transfected cells were spun down at 2000 rpm for 10 minutes and the collected supernatant was mixed with milk in PBST to a final 2.5% concentration and incubated for 30 minutes. 100 μl of blocked supernatant was transferred into coated plates and incubated for 1 hour. […] The plates were washed and developed with TMB detection solution before stopping the reaction with 1% HCl. Absorbance was measured at 450 nm. A VNAR-Fc at know concentration was used for standard curve to calculate VNAR-Fc expression level.
# [2] = molecular target: T3, recombinant human TfR1 (transferrin receptor 1) (human, UniProt P02786 89-760); assay: ELISA, plate coated with 1 µg/ml recombinant human TfR1, purified VNAR-Fc titrated, 4-parameter fit
# T3 construct: Bought recombinant His-tagged protein; also called hTfR1
# T3 sequence (P02786 89-760 limits assumed): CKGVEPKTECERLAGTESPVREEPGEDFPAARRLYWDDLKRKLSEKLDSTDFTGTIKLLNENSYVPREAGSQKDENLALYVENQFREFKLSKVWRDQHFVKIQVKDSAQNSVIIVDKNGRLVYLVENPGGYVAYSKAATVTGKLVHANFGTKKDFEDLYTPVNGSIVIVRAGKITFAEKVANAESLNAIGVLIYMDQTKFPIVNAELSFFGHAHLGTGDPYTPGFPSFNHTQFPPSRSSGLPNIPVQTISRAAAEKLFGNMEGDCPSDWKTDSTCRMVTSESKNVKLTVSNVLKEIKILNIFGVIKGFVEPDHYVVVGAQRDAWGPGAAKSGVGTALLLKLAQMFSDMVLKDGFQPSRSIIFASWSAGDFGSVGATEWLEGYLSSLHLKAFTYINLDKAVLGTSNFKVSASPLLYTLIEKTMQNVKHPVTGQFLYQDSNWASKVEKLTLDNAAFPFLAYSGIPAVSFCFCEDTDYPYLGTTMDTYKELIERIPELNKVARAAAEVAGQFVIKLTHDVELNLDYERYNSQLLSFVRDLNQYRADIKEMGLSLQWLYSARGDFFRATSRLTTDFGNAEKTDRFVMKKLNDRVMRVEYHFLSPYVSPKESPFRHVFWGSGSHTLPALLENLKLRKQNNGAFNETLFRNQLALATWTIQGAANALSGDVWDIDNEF
# Method: (§3) It was previously reported that affinity might play a crucial role in TfR1 mediated brain penetration. […] Affinity estimation and unspecific binding was initially assessed using ELISA for human and mouse TfR1.
# as §2
# [3] = molecular target: T2, recombinant mouse TfR1 (transferrin …); assay: ELISA, plate coated with 1 µg/ml recombinant mouse TfR1, purified VNAR-Fc titrated, 4-parameter fit
# Method: as §3, §2
# human serum albumin = molecular target: T4, human serum albumin (human, UniProt P02768 25-609); assay: ELISA with Expi293 culture medium used directly, coated HSA, anti-Fc detection
# T4 construct: Negative control protein; also called HSA
# T4 sequence (P02768 25-609 limits assumed): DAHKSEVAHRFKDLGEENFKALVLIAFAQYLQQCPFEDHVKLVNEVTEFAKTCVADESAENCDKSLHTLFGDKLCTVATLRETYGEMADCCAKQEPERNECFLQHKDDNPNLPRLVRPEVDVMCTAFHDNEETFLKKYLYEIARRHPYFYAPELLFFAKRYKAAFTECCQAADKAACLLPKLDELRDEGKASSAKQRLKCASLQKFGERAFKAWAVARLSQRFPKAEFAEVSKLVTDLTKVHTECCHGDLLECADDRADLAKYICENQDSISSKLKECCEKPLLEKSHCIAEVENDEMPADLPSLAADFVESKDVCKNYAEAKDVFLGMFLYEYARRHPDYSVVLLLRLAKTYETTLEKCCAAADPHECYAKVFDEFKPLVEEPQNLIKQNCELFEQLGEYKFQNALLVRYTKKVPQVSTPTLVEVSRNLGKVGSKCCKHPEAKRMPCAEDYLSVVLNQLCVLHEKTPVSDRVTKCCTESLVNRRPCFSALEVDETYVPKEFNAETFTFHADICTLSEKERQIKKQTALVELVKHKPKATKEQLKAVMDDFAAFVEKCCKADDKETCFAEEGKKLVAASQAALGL
# Method: as §1, §2
# [4] = molecular target: T3, recombinant human TfR1 (transferrin …); assay: Octet, human TfR1 immobilised; 8D3 as first antibody, which does not bind human TfR1 (grey column); white cell
# Method: FIGS. 15A and 15B. Epitope binning by cross-competition binding to mouse and human TfR1. VNAR-Fc fusion proteins were tested for cross-blocking in a pairwise manner against mouse (A) and human TfR1 (B) immobilised on biosensors using the Octet platform.
# A series of biochemical parameters was examined to further characterize the panel VNAR to TfR1 obtained from in vivo phage display selections. Epitope binning experiments were performed to assess whether the VNARs could compete against each other for binding to either the mouse or human TfR1. […] Because each VNAR binds via a unique CDR3 region with a different structural topography, steric interactions could be important efficient transcytosis.
Binder,EC50 [1] [nM],binding result (recombinant mouse TfR2),EC50 [2] [nM],EC50 [3] [nM],binding result (human serum albumin),Octet signal as second antibody after 8D3 [4]
"IDUA-clone 10-hFc (Fc fusion, Order of the parts follows the text's 'VNAR-Fc-IDUA'; Made in CHO cells; also called clone 10 VNAR-Fc-IDUA fusion protein; not shown: human Fc fragment (hFc)) chain (part 1 of 2): ARVDQTPQTITKETGESLTINCVLRDSNCALSSTYWYRKKSGSTNEENISKGGRYVETVNSGSKSFSLRINDLTVEDSGTYRCNVVQYPSYNNYFWCDVYGDGTAVTVNA chain (part 2 of 2): APHLVHVDAARALWPLRRFWRSTGFCPPLPHSQADQYVLSWDQQLNLAYVGAVPHRGIKQVRTHWLLELVTTRGSTGRGLSYNFTHLDGYLDLLRENQLLPGFELMGSASGHFTDFEDKQQVFEWKDLVSSLARRYIGRYGLAHVSKWNFETWNEPDHHDFDNVSMTMQGFLNYYDACSEGLRAASPALRLGGPGDSFHTPPRSPLSWGLLRHCHDGTNFFTGEAGVRLDYISLHRKGARSSISILEQEKVVAQQIRQLFPKFADTPIYNDEADPLVGWSLPQPWRADVTYAAMVVKVIAQHQNLLLANTTSAFPYALLSNDNAFLSYHPHPFAQRTLTARFQVNNTRPPHVQLLRKPVLTAMGLLALLDEEQLWAEVSQAGTVLDSNHTVGVLASAHRPQGPADAWRAAVLIYASDDTRAHPNRSVAVTLRLRGVPPGPGLVYVTRYLDNGLCSPDGEWRRLGRPVFPTAEQFRRMRAAEDPVAAAPRPLPAGGRLTLRPALRLPSLLLVHVCARPEKPPGQVTRLRALPLTQGQLVLVWSDEHVGSKCLWTYEIQFSQDGKAYTPVSRKPSTFNLFVFSPDTGAVSGSYRVRALDYWARPGPFSDPVPYLEVPVPRGPPSPGNP",8.33,,,,,
"Clone 7 VNAR-Fc fusion protein (Fc fusion, Bivalent VNAR-Fc; not shown: glycine/serine linker (GxSx)n extending the hinge; human IgG1 Fc (hinge, CH2, CH3) of pFUSE-hIgG1e3-Fc2; G236 also deleted) ARVDQTPQTITKETGESLTINCVLRDSNCELSSTYWYRKKSGSTNEARISKGGRYVETVNSGSKSFSLKINDLTVEDSGTYRCNVLTTDSYDLGDVYGDGTVVTVNA",,no binding,463,5370,no binding,
"Clone 16 VNAR-Fc fusion protein (Fc fusion, Bivalent VNAR-Fc; not shown: glycine/serine linker (GxSx)n extending the hinge; human IgG1 Fc (hinge, CH2, CH3) of pFUSE-hIgG1e3-Fc2; G236 also deleted) ARVDQTPQTITKETGESLTINCVLRDSNCALPSTYWYRKKSGSTNEESISKGGRYVETVNSGSKSFSLRINDLTVKDSGTYRCKVDLPRYLCFSQYGRWYDVYGDGTAVTVNA",,,3110,7180,,

# Second part, the binder after the results:
EC50 [1] [nM],binding result (recombinant mouse TfR2),EC50 [2] [nM],EC50 [3] [nM],binding result (human serum albumin),Octet signal as second antibody after 8D3 [4],Binder
7.24,,,,,,"IDUA-clone 1-hFc (Fc fusion, Order of the parts follows the text's 'VNAR-Fc-IDUA'; Made in CHO cells; also called clone 1 VNAR-Fc-IDUA fusion protein; not shown: human Fc fragment (hFc)) chain (part 1 of 2): ARVDQTPQTITKETGESLTINCVLRDNNCALSTTYWYRKKSGSTNEENISKGGRYVETVNSGSKSFSLKINDLTVEDSGTYRCNVRDVQACGNDWVWLDVYGGGTVVTVNA chain (part 2 of 2): APHLVHVDAARALWPLRRFWRSTGFCPPLPHSQADQYVLSWDQQLNLAYVGAVPHRGIKQVRTHWLLELVTTRGSTGRGLSYNFTHLDGYLDLLRENQLLPGFELMGSASGHFTDFEDKQQVFEWKDLVSSLARRYIGRYGLAHVSKWNFETWNEPDHHDFDNVSMTMQGFLNYYDACSEGLRAASPALRLGGPGDSFHTPPRSPLSWGLLRHCHDGTNFFTGEAGVRLDYISLHRKGARSSISILEQEKVVAQQIRQLFPKFADTPIYNDEADPLVGWSLPQPWRADVTYAAMVVKVIAQHQNLLLANTTSAFPYALLSNDNAFLSYHPHPFAQRTLTARFQVNNTRPPHVQLLRKPVLTAMGLLALLDEEQLWAEVSQAGTVLDSNHTVGVLASAHRPQGPADAWRAAVLIYASDDTRAHPNRSVAVTLRLRGVPPGPGLVYVTRYLDNGLCSPDGEWRRLGRPVFPTAEQFRRMRAAEDPVAAAPRPLPAGGRLTLRPALRLPSLLLVHVCARPEKPPGQVTRLRALPLTQGQLVLVWSDEHVGSKCLWTYEIQFSQDGKAYTPVSRKPSTFNLFVFSPDTGAVSGSYRVRALDYWARPGPFSDPVPYLEVPVPRGPPSPGNP"
,no binding,151,1560,no binding,0.403,"Clone 12 VNAR-Fc fusion protein (Fc fusion, Bivalent VNAR-Fc; not shown: glycine/serine linker (GxSx)n extending the hinge; human IgG1 Fc (hinge, CH2, CH3) of pFUSE-hIgG1e3-Fc2; G236 also deleted) ARVDQTPQTITKETGESLTINCVLRDSICALSSTHWYRKKSGSTNEESISKGGRYVETVNSGSKSFSLRINDLTVEDSGTYRCKVVRSGVGPCWADVYGGGTAVTVNA"
